Data taken from patent EP4644426A1 (Gan & Lee Pharmaceuticals Co., Ltd., dated 2025).
Where two headings read alike, the source gives them in different places. Values belong to the molecule of their own block, whether it stands above or below them.

What was measured:
[1] = target: human FXIa factor (human) (UniProt P03951); assay: cell-based or functional assay
[2] = target: human FXIa factor (human) (UniProt P03951); assay: Biacore 8K (SPR), human FXIa in 2-fold dilution series
[3] = target: human FXIa factor (human) (UniProt P03951); assay: cell-based or functional assay; remark: listed apart in the source
[4] = target: human FXIa factor (human) (UniProt P03951); assay: cell-based or functional assay; remark: listed apart in the source
human FXIa factor [5] = target: T1, human FXIa factor (human, UniProt P03951 19-625); assay: cell-based or functional assay
human FXIa factor [6] = target: T1, human FXIa factor; assay: cell-based or functional assay; remark: listed apart in the source
human FXIa factor [7] = target: T1, human FXIa factor; assay: cell-based or functional assay; remark: listed apart in the source
human FXIa factor [8] = target: T1, human FXIa factor; assay: Biacore 8K (SPR), human FXIa in 2-fold dilution series
human FXIa factor [9] = target: T1, human FXIa factor; assay: cell-based or functional assay; remark: listed apart in the source
human FXIa factor [10] = target: T1, human FXIa factor; assay: cell-based or functional assay; remark: listed apart in the source

FXIa Kit Activity Assay (nM), IC50 (First Batch) [1]: 11.2 nM | FXIa Kit Activity Assay (nM), IC50 (Second Batch) [1]: 11.7 nM | FXIa Kit Activity Assay (nM), IC50 (Third Batch) [1]: 13.3 nM | FXIa kit Activity Assay (nM), IC50 [1]: 28.9 nM | IC50(nM) from S2366 Assay [1]: 67.3 nM | IC50(nM) from S2366 assay (First Batch) [1]: 118 nM | IC50(nM) from S2366 assay (Fourth Batch) [1]: 64.7 nM | IC50(nM) from S2366 assay (Second Batch) [1]: 83.6 nM | IC50(nM) from S2366 assay (Third Batch) [1]: 106 nM | OD405nm, S2366 activity assay, antibody at 20µg/mL [1]: 0.449 OD405nm | Kd [2]: 0.00717 nM | koff [2]: 8.48e-06 s⁻¹ | kon [2]: 1.18e+06 M⁻¹ s⁻¹ | IC50(nM) from S2366 Assay [3]: 44.9 nM | FXIa kit Activity Assay (nM), IC50 [4]: 12.7 nM
Molecule: MAA868 (antibody)

OD405nm, S2366 activity assay, antibody at 20µg/mL (human FXIa factor [5]): 0.268 OD405nm
B1: 24B6-sy (antibody, V domains shown)
VH: EVQLQESGGDLVKPGGSLKLSCAASGFTFSSYGMSWVRQTPDKRLEWVATISSGGSFTYYPDSVKGRFTISRDNAKNTLYLQMSSLKSEDTAMYYCASLTSEGYAMEYWGQGTSVTVSS
VL: DIVLTQSPASLAVSLGQRATISCRASKSVSTSGYSHMHWYQQKLGQPPKLLIYLASNLESGVPARFSGSGSGTDFTLNIHPVEEEDAATYYCQHSRELPYTFGGGTKLEIK

IC50(nM) from S2366 assay (First Batch) (human FXIa factor [6]): 122 nM | FXIa Kit Activity Assay (nM), IC50 (First Batch) (human FXIa factor [7]): 6.7 nM
B2: chimeric antibody 24B6 (antibody, V domains shown)
VH: B1 VH
VL: B1 VL

Kd (human FXIa factor [8]): 0.00145 nM | koff (human FXIa factor [8]): 1.96e-05 s⁻¹ | kon (human FXIa factor [8]): 1.35e+07 M⁻¹ s⁻¹ | FXIa kit Activity Assay (nM), IC50 (human FXIa factor [9]): 0.545 nM | IC50 (nM) from S2366 Assay (human FXIa factor [10]): 24.5 nM
B3: humanized antibody 29E10C4-1 (antibody, human IgG1, kappa, V domains shown)
VH: QVQLVQSGAEVKKPGSSVKVSCKASGGTFSDYFIEWVRQAPGQGLEWMGVINPGNDVTNYNEKFKGRVTITADKSTSTAYMELSSLRSEDTAVYYCARSAGNYENSMDFWGQGTTVTVSS
VL: EIVLTQSPATLSLSPGERATLSCKASQSVSNDVGWYQQKPGQAPRLLIYYTSNRYTGIPARFSGSGSGTDFTLTISSLEPEDFAVYYCQQDYHFPLTFGGGTKVEIKR
notes: 29E10C4-1 is the only humanized form of that clone

IC50(nM) from S2366 assay (Third Batch) (human FXIa factor [6]): 93.1 nM | FXIa Kit Activity Assay (nM), IC50 (Third Batch) (human FXIa factor [7]): 7.8 nM
B4: chimeric antibody 11E8 (antibody, V domains shown)
VH: EVKLQESGPELVKTGASVKISCKASGYSFTGYFMNWVKQSHGKSLEWIGFINCYNGATSYNQKFKGKATFTVDASSSSAYMQFNSLTSEDSAVYYCARTISTGDSFDYWGQGSTLTVSS
VL: DIVMTQSTSYLSVSLGGRVTITCKASDHINNWLAWYQQKPGDAPSLLISGASRLETGVPSRFSGSGSGKDYTLSITSLQTEDVATYYCQQYWTTPFTFGSGTKLEIK

OD405nm, S2366 activity assay, antibody at 20µg/mL (human FXIa factor [5]): 0.294 OD405nm
B5: 11E8-sy (antibody, V domains shown)
VH: B4 VH
VL: B4 VL

OD405nm, S2366 activity assay, antibody at 20µg/mL (human FXIa factor [5]): 0.189 OD405nm
B6: 17E10-sy (antibody, V domains shown)
VH: EVQLEESGPGLVKPSQSLSLTCSVTGYSITSGFYWNWIRQFPGNKLEWMGYISFDGRHNYNPSLKNRFSITRDTSKNQFFLKLTSVTAEDTATYYCARDLITTVYYYPMDYWGQGTSVTVSS
VL: DIVMTQSHKFMSTSVGDRVSITCKASQDVGTAVDWYQQKTGQSPKLLIYWASTRHTGVPDRFTGSGSGTDFTLTISNVQSEDLADYFCQQYSNYPLTFGAGTKLELK

OD405nm, S2366 activity assay, antibody at 20µg/mL (human FXIa factor [5]): 0.414 OD405nm
B7: 17E3C10-sy (antibody, V domains shown)
VH: QVKLQESGPELRKPGETVYISCKASGYTFTNYGVNWVKQAPGKGLKWMGWINTYTGEPIYADDFKGRFAFSLETSANTAYLQISNLTNEDTATYFCARLYLYGNTYDYYAMDYWGQGTSVTVSS
VL: DIVLTQTPSSMYASLGERVTITCKASQDISTYLSWFQQKPGKSPKTLIYRANRLIDGVPSRFSGSGSGQDFSLTISSLEYEDMGVYYCLQYDDLNTFGGGTKLEIK

FXIa kit Activity Assay (nM), IC50 (human FXIa factor [9]): 0.248 nM | OD405nm, S2366 activity assay, antibody at 20µg/mL (human FXIa factor [5]): 0.198 OD405nm
B8: 29E10C4-sy (antibody, V domains shown)
VH: QVKLEESGAELVRPGTSVKVSCKASGYAFTDYFIEWIKQRPGQGLEWIGVINPGNDVTNYNEKFKGKATLTVDKSSTTAYMQLSSLTSDDSAVYFCTRSAGNYENSMDFWGQGTSVTVSS
VL: DIVLTQSPKFLLVSAGDRVTITCKASQSVSNDVGWYQQKPGQSPKLLIYYTSNRYTGVPDRFTGSGYGTDFTFTISSVQAEDLAVYFCQQDYHFPLTFGAGTKLELK

IC50(nM) from S2366 assay (Second Batch) (human FXIa factor [6]): 38.5 nM | FXIa Kit Activity Assay (nM), IC50 (Second Batch) (human FXIa factor [7]): 1.31 nM
B9: chimeric antibody 19C9C10 (antibody, V domains shown)
VH: EVKLEESGAELVKTGASVKLSCTASGFNIKDTYMHWVKQRPEQGLEWIGRIDPANDNTKYDPKFQGRATVTADTSSNTAYLQLISLTSEDTAVYYCAGDYDGYAMDYWGQGTSVTVSS
VL: DIVMTQTTSSLSVSLGGKVTITCKASQDINKYVAWFQHKPGKGPRLLMHYTSTLEPGIPSRFSGSGSGRDYSFTISNLEPEDIATYYCLQYDNLLTFGGGTKLEIK

OD405nm, S2366 activity assay, antibody at 20µg/mL (human FXIa factor [5]): 0.211 OD405nm
B10: 14F3-sy (antibody, V domains shown)
VH: QVQLQQSGAELVRPGTSVTVSCKASGYAFSNYLIEWVNQRPGQGLEWIGVINPGSGYTNYNENFKDKATLTADTSSSTAYMQLSSLTSDDSAVYFCARTYGKYGGAMDFWGQGTSVTVSS
VL: DIVMTQTPKFLLVSAGDRVTITCKASQSVSNDVAWYQQKPGQSPKLLIYYISNRYTGVPDRFTGSGYGTDFTFTINTVQAEDLAVYFCQQDYSSPPTFGGGTKLEIK
